Experiment [1] concerns the target human VEGFA165 (human) (UniProt P15692). In words: cell-based or functional assay.
The target is the same in experiment [2]. In words: SPR Biacore 8K, VEGFA165 (GenScript) on CM5 at low immobilization, protein as analyte, 1:1 model.

pKd: −log10 of the molar value.

Sequence of human VEGFA165 (human) (P15692 other isoform, or with tags, fused parts or gaps limits assumed): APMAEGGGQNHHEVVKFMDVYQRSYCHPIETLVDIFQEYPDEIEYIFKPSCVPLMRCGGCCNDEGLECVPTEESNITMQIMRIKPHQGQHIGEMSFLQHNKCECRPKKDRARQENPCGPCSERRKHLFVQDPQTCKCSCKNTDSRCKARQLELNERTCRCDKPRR

“human IgG1 antibody (hIgG1 control) that binds to HIV” returned an HUVEC proliferation inhibition Maximum inhibition rate (%) in the experiment with human VEGFA165 (human) [1] of 0%.

As to Aflibercept (Fc fusion), in the experiment with human VEGFA165 (human) [2], the pKd (usually the Kd on a negative log10 scale, so that one unit is a factor of ten) was 10.23; the koff – broadly, the first-order rate constant of dissociation – is 9.57e-05 s⁻¹; the on-rate constant (kon) (commonly the rate constant with which the complex forms) was 1.64e+06 M⁻¹ s⁻¹. Besides, in the experiment with human VEGFA165 (human) [1], the HUVEC proliferation inhibition IC50 stood at 0.81 nM and the HUVEC proliferation inhibition Maximum inhibition rate (%) came to 60%.
